Reference: US20090291890A1 (published 2009)
Numbering of substitutions follows the chain as printed. Names and notes keep the numbering of the source.

B1: FVIIa variant S52A (enzyme)
chain: ANAFLEELRPGSLERECKEEQCSFEEAREIFKDAERTKLFWISYSDGDQCAASPCQNGGSCKDQLQSYICFCLPAFEGRNCETHKDDQLICVNENGGCEQYCSDHTGTKRSCRCHEGYSLLADGVSCTPTVEYPCGKIPILEKRNASKPQGRIVGGKVCPKGECPWQVLLLVNGAQLCGGTLINTIWVVSAAHCFDKIKNWRNLIAVLGEHDLSEHDGDEQSRRVAQVIIPSTYVPGTTNHDIALLRLHQPVVLTDHVVPLCLPERTFSERTLAFVRFSLVSGWGQLLDRGATALELMVLNVPRLMTQDCLQQSRKVGDSPNITEYMFCAGYSDGSKDSCKGDSGGPHATHYRGTWYLTGIVSWGQGCATVGHFGVYTRVSQYIEWLQKLMRSEPRPGVLLRAPFP
B2: FVIIa variant S60A (enzyme)
chain: B1 chain with A52S, S60A
B3: FVIIa variant Q366D (enzyme)
chain: B1 chain with A52S, Q366D
B4: FVIIa variant Q366E (enzyme)
chain: B1 chain with A52S, Q366E
B5: FVIIa variant Q366N (enzyme)
chain: B1 chain with A52S, Q366N
B6: FVIIa variant Q366T (enzyme)
chain: B1 chain with A52S, Q366T
B7: FVIIa variant Q366S (enzyme)
chain: B1 chain with A52S, Q366S
B8: FVIIa variant Q366V (enzyme)
chain: B1 chain with A52S, Q366V
B9: FVIIa variant E394N/P395A/R396S (enzyme)
chain: B1 chain with A52S, E394N, P395A, R396S
B10: FVIIa variant R202S (enzyme)
chain: B1 chain with A52S, R202S
B11: FVIIa variant A292N/A294S (enzyme)
chain: B1 chain with A52S, A292N, A294S
B12: FVIIa variant G318N (enzyme)
chain: B1 chain with A52S, G318N
B13: FVIIa variant A175S (enzyme)
chain: B1 chain with A52S, A175S
B14: FVIIa variant A122N/G124S (enzyme)
chain: B1 chain with A52S, A122N, G124S
B15: FVIIa variant T130N/E132S (enzyme)
chain: B1 chain with A52S, T130N, E132S
B16: FVIIa variant A122N/G124S/E394N/P395A/R396S (enzyme)
chain: B1 chain with A52S, A122N, G124S, E394N, P395A, R396S
B17: FVIIa variant V158T/L287T/M298K (enzyme)
chain: B1 chain with A52S, V158T, L287T, M298K
B18: FVIIa variant V158D/L287T/M298K (enzyme)
chain: B1 chain with A52S, V158D, L287T, M298K
B19: FVIIa variant S103S111delins… (enzyme)
chain: ANAFLEELRPGSLERECKEEQCSFEEAREIFKDAERTKLFWISYSDGDQCASSPCQNGGSCKDQLQSYICFCLPAFEGRNCETHKDDQLICVNENGGCEQYCSFGRGDIRNVCRCHEGYSLLADGVSCTPTVEYPCGKIPILEKRNASKPQGRIVGGKVCPKGECPWQVLLLVNGAQLCGGTLINTIWVVSAAHCFDKIKNWRNLIAVLGEHDLSEHDGDEQSRRVAQVIIPSTYVPGTTNHDIALLRLHQPVVLTDHVVPLCLPERTFSERTLAFVRFSLVSGWGQLLDRGATALELMVLNVPRLMTQDCLQQSRKVGDSPNITEYMFCAGYSDGSKDSCKGDSGGPHATHYRGTWYLTGIVSWGQGCATVGHFGVYTRVSQYIEWLQKLMRSEPRPGVLLRAPFP
B20: FVIIa variant P406ins… (enzyme)
chain: ANAFLEELRPGSLERECKEEQCSFEEAREIFKDAERTKLFWISYSDGDQCASSPCQNGGSCKDQLQSYICFCLPAFEGRNCETHKDDQLICVNENGGCEQYCSDHTGTKRSCRCHEGYSLLADGVSCTPTVEYPCGKIPILEKRNASKPQGRIVGGKVCPKGECPWQVLLLVNGAQLCGGTLINTIWVVSAAHCFDKIKNWRNLIAVLGEHDLSEHDGDEQSRRVAQVIIPSTYVPGTTNHDIALLRLHQPVVLTDHVVPLCLPERTFSERTLAFVRFSLVSGWGQLLDRGATALELMVLNVPRLMTQDCLQQSRKVGDSPNITEYMFCAGYSDGSKDSCKGDSGGPHATHYRGTWYLTGIVSWGQGCATVGHFGVYTRVSQYIEWLQKLMRSEPRPGVLLRAPFPCSFGRGDIRNVC
B21: FVIIa variant P406ins… (enzyme)
chain: ANAFLEELRPGSLERECKEEQCSFEEAREIFKDAERTKLFWISYSDGDQCASSPCQNGGSCKDQLQSYICFCLPAFEGRNCETHKDDQLICVNENGGCEQYCSDHTGTKRSCRCHEGYSLLADGVSCTPTVEYPCGKIPILEKRNASKPQGRIVGGKVCPKGECPWQVLLLVNGAQLCGGTLINTIWVVSAAHCFDKIKNWRNLIAVLGEHDLSEHDGDEQSRRVAQVIIPSTYVPGTTNHDIALLRLHQPVVLTDHVVPLCLPERTFSERTLAFVRFSLVSGWGQLLDRGATALELMVLNVPRLMTQDCLQQSRKVGDSPNITEYMFCAGYSDGSKDSCKGDSGGPHATHYRGTWYLTGIVSWGQGCATVGHFGVYTRVSQYIEWLQKLMRSEPRPGVLLRAPFPGGGSCSFGRGDIRNVC
B22: FVIIa variant S222A/Gla Swap FIX (enzyme)
chain: YNSGKLEEFVQGNLERECMEEKCSFEEAREVFENTERTTEFWKQYSDGDQCASSPCQNGGSCKDQLQSYICFCLPAFEGRNCETHKDDQLICVNENGGCEQYCSDHTGTKRSCRCHEGYSLLADGVSCTPTVEYPCGKIPILEKRNASKPQGRIVGGKVCPKGECPWQVLLLVNGAQLCGGTLINTIWVVSAAHCFDKIKNWRNLIAVLGEHDLSEHDGDEQARRVAQVIIPSTYVPGTTNHDIALLRLHQPVVLTDHVVPLCLPERTFSERTLAFVRFSLVSGWGQLLDRGATALELMVLNVPRLMTQDCLQQSRKVGDSPNITEYMFCAGYSDGSKDSCKGDSGGPHATHYRGTWYLTGIVSWGQGCATVGHFGVYTRVSQYIEWLQKLMRSEPRPGVLLRAPFP
B23: FVIIa variant H257A/Gla Swap FIX (enzyme)
chain: B22 chain with A223S, H258A
B24: FVIIa variant S222A/H257A/Gla Swap FIX (enzyme)
chain: B22 chain with H258A
B25: FVIIa variant Q286R/Gla Swap FIX (enzyme)
chain: B22 chain with A223S, Q287R
B26: FVIIa variant Q286R/H257A (enzyme)
chain: B1 chain with A52S, H257A, Q286R
B27: FVIIa variant Q286R/S222A (enzyme)
chain: B1 chain with A52S, S222A, Q286R
B28: FVIIa variant Q286R/S222A/H257A (enzyme)
chain: B1 chain with A52S, S222A, H257A, Q286R
B29: FVIIa variant Q286R/S222A/Gla Swap FIX (enzyme)
chain: B22 chain with Q287R
B30: FVIIa variant Q286R/H257A/Gla Swap FIX (enzyme)
chain: B22 chain with A223S, H258A, Q287R
B31: FVIIa variant Q286R/S222A/H257A/Gla Swap FIX (enzyme)
chain: B22 chain with H258A, Q287R
B32: FVIIa variant Q286R/M298Q/K341Q (enzyme)
chain: B1 chain with A52S, Q286R, M298Q, K341Q
B33: FVIIa variant Q286R/M298Q/K199E (enzyme)
chain: B1 chain with A52S, K199E, Q286R, M298Q

These binders were tested against Factor X (FX) (Homo sapiens (Human)) (UniProt P00742).
Sequence of Factor X (FX) (Homo sapiens (Human)) (P00742 41-488 limits assumed): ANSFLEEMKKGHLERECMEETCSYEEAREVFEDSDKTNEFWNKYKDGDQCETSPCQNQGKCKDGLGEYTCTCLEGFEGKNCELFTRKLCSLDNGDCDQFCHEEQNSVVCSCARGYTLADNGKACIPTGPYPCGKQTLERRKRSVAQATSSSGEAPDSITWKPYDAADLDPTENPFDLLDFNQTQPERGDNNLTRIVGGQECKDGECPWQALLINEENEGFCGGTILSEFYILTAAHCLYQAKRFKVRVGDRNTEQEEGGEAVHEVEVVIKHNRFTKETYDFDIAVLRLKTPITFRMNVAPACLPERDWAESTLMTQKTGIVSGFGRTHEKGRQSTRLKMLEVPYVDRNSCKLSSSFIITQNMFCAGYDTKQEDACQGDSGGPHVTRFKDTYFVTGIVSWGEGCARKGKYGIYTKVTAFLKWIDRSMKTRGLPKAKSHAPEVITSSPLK

Row | Binder | kcat/KM, TF-Dependent Indirect Assay [M⁻¹ s⁻¹]
1 | B1 | 4.66e+07
2 | B2 | 5.15e+07
3 | B3 | 1.88e+07
4 | B4 | 4.77e+07
5 | B5 | 5.64e+07
6 | B6 | 3.42e+07
7 | B7 | 2.7e+07
8 | B8 | 6.59e+07
9 | B9 | 5.32e+07
10 | B10 | 2.57e+07
11 | B11 | 0
12 | B12 | 5.5e+07
13 | B13 | 3.32e+07
14 | B14 | 5.27e+07
15 | B15 | 6.35e+07
16 | B16 | 4.88e+07
17 | B17 | 4.5e+06

Row | Binder | kcat/KM, TF-Dependent Indirect Assay [M⁻¹ s⁻¹]
18 | B18 | 4.48e+06
19 | B19 | 4.83e+07
20 | B20 | 6.16e+07
21 | B21 | 7.47e+07
22 | B22 | 6.55e+07
23 | B23 | 6.45e+07
24 | B24 | 5.77e+07
25 | B25 | 1.11e+08
26 | B26 | 1.27e+08
27 | B27 | 1.42e+08
28 | B28 | 9.51e+07
29 | B29 | 1.61e+08
30 | B30 | 8.09e+07
31 | B31 | 7.75e+07
32 | B32 | 3.93e+07
33 | B33 | 7.74e+07
